Assay results as given in PMC8540335.

Experiments:
[1] = target: NCp7 (1 Zn2+ per protein, as purified) (HIV-1, UniProt P04591 378-432); assay: SPR; 1 Zn2+ per protein; 50 RU RNA immobilized; SPR (Biacore X100, SA chip): 10 mM HEPES pH 7.4, 150 mM NaCl, 0.005% Tween-20, 25 C; settings: protein: recombinant; tags: 6xHis (pET28); label: 3'-biotin; hairpin
[2] = target: 2NCp7 (NCp7 with 2 Zn2+) (HIV-1, UniProt P04591 378-432); assay: SPR; 2 Zn2+ per protein; 50 RU RNA immobilized; SPR (Biacore X100, SA chip): 10 mM HEPES pH 7.4, 150 mM NaCl, 0.005% Tween-20, 25 C; settings: protein: recombinant; tags: 6xHis (pET28); label: 3'-biotin; hairpin

B1: SL3-RNA (structured_RNA)
RNA: GGACUAGCGGAGGCUAGUCC
[1]
  Kd: 21.4 nM
[2]
  Kd: 3.15 nM
